Values of other authors, collected in publication PMC11893814.

Target: wild-type microtubule GTP cap (Homo sapiens) (UniProt P68363)
UniProt P68363, sequence (P68363 whole entry, chain 1 of 2): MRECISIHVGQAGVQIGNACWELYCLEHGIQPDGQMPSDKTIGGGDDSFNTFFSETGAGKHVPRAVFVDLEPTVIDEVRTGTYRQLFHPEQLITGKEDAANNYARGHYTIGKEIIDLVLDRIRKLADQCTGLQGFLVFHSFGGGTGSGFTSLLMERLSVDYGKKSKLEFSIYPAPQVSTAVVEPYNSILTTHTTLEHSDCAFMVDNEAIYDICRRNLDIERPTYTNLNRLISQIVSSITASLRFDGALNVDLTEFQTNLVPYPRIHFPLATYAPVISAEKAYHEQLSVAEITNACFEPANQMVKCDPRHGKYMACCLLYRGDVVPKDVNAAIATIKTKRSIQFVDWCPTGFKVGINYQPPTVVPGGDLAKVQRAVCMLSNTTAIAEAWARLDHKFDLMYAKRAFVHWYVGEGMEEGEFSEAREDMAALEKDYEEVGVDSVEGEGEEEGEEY
UniProt P68363, sequence (A8K854 whole entry, chain 2 of 2, further chain): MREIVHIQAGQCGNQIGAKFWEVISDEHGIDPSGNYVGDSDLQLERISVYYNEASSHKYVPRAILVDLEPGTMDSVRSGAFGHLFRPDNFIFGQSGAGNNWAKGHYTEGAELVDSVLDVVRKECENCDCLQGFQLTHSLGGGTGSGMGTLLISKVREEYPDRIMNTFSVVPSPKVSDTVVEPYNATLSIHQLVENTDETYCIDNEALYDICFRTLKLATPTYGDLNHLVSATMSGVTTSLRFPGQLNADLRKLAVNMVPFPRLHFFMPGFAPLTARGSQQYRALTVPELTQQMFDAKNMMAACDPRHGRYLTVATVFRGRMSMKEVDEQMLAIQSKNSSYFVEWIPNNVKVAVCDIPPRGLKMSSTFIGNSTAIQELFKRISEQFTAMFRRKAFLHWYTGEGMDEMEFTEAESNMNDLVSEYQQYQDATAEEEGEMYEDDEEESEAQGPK

- Kd: 39.6 nM
Substance: EB3 (from UniProt Q9UPY8)
